By Kd is commonly meant the concentration at which binding is half-saturated.

Kd data for one substance are collected here from paper PMC5974088.

What all share (experiment): ITC; 200-400 μM 53BP1 Tudor domain (wt or mutant) injected into 200 μl of 22-44 μM TIRR or Nudt16 (wt or mutant); 25 °C; 20 mM Tris-HCl pH 7.5, 150 mM NaCl; single-site binding model
On the technique in general: Isothermal titration calorimetry measures the heat released or taken up as one component is titrated into another.

Test [1] concerns the target Nudt16 ^H105 (H. sapiens) (UniProt Q96DE0).
Test [2] concerns the target Nudt16 ^H105 with R5, L7, V100 substituted by TIRR residues K10, I12, L101 (H. sapiens) (UniProt Q96DE0).
The target of test [3] is Nudt16 ^W105 (H. sapiens) (UniProt Q96DE0).
Test [4] has as its target TIRR H106A (not stated (human or mouse cDNA cloned)) (UniProt Q8VHN8).
For test [5], the target named is TIRR H106K (not stated (human or mouse cDNA cloned)) (UniProt Q8VHN8).
The target in test [6] is TIRR H106Q (not stated (human or mouse cDNA cloned)) (UniProt Q8VHN8).
The target in test [7] is TIRR H106R (not stated (human or mouse cDNA cloned)) (UniProt Q8VHN8).
In test [8] the target is TIRR H106W (not stated (human or mouse cDNA cloned)) (UniProt Q8VHN8).
The target of test [9] is TIRR H106Y (not stated (human or mouse cDNA cloned)) (UniProt Q8VHN8).
Test [10] has as its target TIRR H106Δ (not stated (human or mouse cDNA cloned)) (UniProt Q8VHN8).
Test [11] concerns the target TIRR I12A (not stated (human or mouse cDNA cloned)) (UniProt Q8VHN8).
Test [12] addresses TIRR I12G (not stated (human or mouse cDNA cloned)) (UniProt Q8VHN8).
Test [13] addresses TIRR K10E (not stated (human or mouse cDNA cloned)) (UniProt Q8VHN8).
Test [14] addresses TIRR L20A (not stated (human or mouse cDNA cloned)) (UniProt Q8VHN8).
The target in test [15] is TIRR P105A (not stated (human or mouse cDNA cloned)) (UniProt Q8VHN8).

Sequence of 53BP1 tandem Tudor domain (1484-1603) (Q12888 other isoform, or with tags, fused parts or gaps): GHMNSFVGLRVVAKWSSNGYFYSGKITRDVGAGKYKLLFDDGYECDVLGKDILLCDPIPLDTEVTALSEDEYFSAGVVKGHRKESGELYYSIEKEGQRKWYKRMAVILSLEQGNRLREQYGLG

As for “53BP1 tandem Tudor domain (1484-1603) (from UniProt Q12888 1484-1603) (domain or fragment)”, the Kd in test [1] turned out to be 7.1 µM; in [2] it was 1 µM; in test [3], 3.6 µM; in test [4], 3.9 µM; in test [5] it was 6.8 µM; in [6] it was 5.1 µM. In addition, the Kd in test [7] worked out at 1.9 µM; in test [8], 0.5 µM; in [9], 1.4 µM; in [10], 17.8 µM; in [11], 4.9 µM; in test [12] it was 38.3 µM. The Kd turned out to be 20.4 µM in [13], 25.5 µM in test [14] and 4.3 µM in test [15].
